Results taken from article PMC5424545 (Cell reports, 2017).

B1: Snf5 (natural protein, S. cerevisiae (endogenous in yeast), UniProt P18480 1-905, looked up)
chain: MNNQPQGTNSVPNSIGNIFSNIGTPSFNMAQIPQQLYQSLTPQQLQMIQQRHQQLLRSRLQQQQQQQQQTSPPPQTHQSPPPPPQQSQPIANQSATSTPPPPPAPHNLHPQIGQVPLAPAPINLPPQIAQLPLATQQQVLNKLRQQAIAKNNPQVVNAITVAQQQVQRQIEQQKGQQTAQTQLEQQRQLLVQQQQQQQLRNQIQRQQQQQFRHHVQIQQQQQKQQQQQQQHQQQQQQQQQQQQQQQQQQQQQQQQQQQQQQQQQQQQQGQIPQSQQVPQVRSMSGQPPTNVQPTIGQLPQLPKLNLPKYQTIQYDPPETKLPYPTYWSDKKADTDTLLYEQIIQRDKINKYSLIRETNGYDPFSIYGFSNKEYISRLWHTLKYYQDLKNTRMKSITSTSQKIPSASIWGNGYSGYGNGITNTTTRVIPQVEVGNRKHYLEDKLKVYKQAMNETSEQLVPIRLEFDQDRDRFFLRDTLLWNKNDKLIKIEDFVDDMLRDYRFEDATREQHIDTICQSIQEQIQEFQGNPYIELNQDRLGGDDLRIRIKLDIVVGQNQLIDQFEWDISNSDNCPEEFAESMCQELELPGEFVTAIAHSIREQVHMYHKSLALLGYNFDGSAIEDDDIRSRMLPTITLDDVYRPAAESKIFTPNLLQISAAELERLDKDKDRDTRRKRRQGRSNRRGMLALSGTSASNTSMNGVHNTVAAGNASSLPPGEILLPDIADIPRTFRTPVPSTLMPGGVDVGPSVESYELRNTTTYKSRPDRPKPVSPPCYIIDHIPGHSLLLSIKLPGKVNTKEEFAAAPNDTSSGTNAMLPSPESLKTKLNSNIRAGVTIPSIPNPIANHTVTNSPNPTLQPVIPGGAASKSVPTPSLPIAPPVAPHDSEATLLTNSNNGSSNNNTQNT
B2: Swi1 (natural protein, S. cerevisiae (endogenous in yeast), UniProt P09547 1-1314, looked up)
chain: MDFFNLNNNNNNNNTTTTTTTTNNNNTNNNNTNNNNNPANNTNNNNSTGHSSNTNNNTNNNNTNTGASGVDDFQNFFDPKPFDQNLDSNNNNSNSNNNDNNNSNTVASSTNFTSPTAVVNNAAPANVTGGKAANFIQNQSPQFNSPYDSNNSNTNLNSLSPQAILAKNSIIDSSNLPLQAQQQLYGGNNNNNSTGIANDNVITPHFITNVQSISQNSSSSTPNTNSNSTPNANQQFLPFNNSASNNGNLTSNQLISNYAASNSMDRSSSASNEFVPNTSDNNNNSNNHNMRNNSNNKTSNNNNVTAVPAATPANTNNSTSNANTVFSERAAMFAALQQKQQQRFQALQQQQQQQQNQQQQNQQPQQQQQQQQNPKFLQSQRQQQQRSILQSLNPALQEKISTELNNKQYELFMKSLIENCKKRNMPLQSIPEIGNRKINLFYLYMLVQKFGGADQVTRTQQWSMVAQRLQISDYQQLESIYFRILLPYERHMISQEGIKETQAKRIFLQQFLQELLKKVQQQQQAAALANANNNINSASSAPTPAAPGASVPATAAPGTEAGIVPVSANTPKSLNSNININVNNNNIGQQQVKKPRKQRVKKKTKKELELERKEREDFQKRQQKLLEDQQRQQKLLLETKLRQQYEIELKKLPKVYKRSIVRNYKPLINRLKHYNGYDINYISKIGEKIDSNKPIFLFAPELGAINLHALSMSLQSKNLGEINTALNTLLVTSADSNLKISLVKYPELLDSLAILGMNLLSNLSQNVVPYHRNTSDYYYEDAGSNQYYVTQHDKMVDKIFEKVNNNATLTPNDSNDEKVTILVDSLTGNQLPTPTPTEMEPDLDTECFISMQSTSPAVKQWDLLPEPIRFLPNQFPLKIHRTPYLTSLKKIKDEIDDPFTKINTRGAEDPKVLINDQLSTISMILRNISFSDNNSRIMSRNFYLKRFISDLLWLVLIHPENFTCNRKILNFKKDLVIVLSNISHLLEIASSIDCLLILILVISFGQPKLNPMASSSSFGSESLTFNEFQLQWGKYQTFGVDILAKLFSLEKPNLNYFKSILLNKNTGNNLYDRNSNNNHKDKKLLRRLLNLYNDNNKNNNNRHNLLNDVVSFLFSAIPLQQVLSQSADPSLLIDQFSPVISQSLTSILVIVQKILPLSNEVFEISENNSDSNSNNNGNKDSSFNFNKNLPFVWLSSEENIGSGLLKLSEIILNINNSTSKNTLLQQQNYSKVLLPSINISCVQLIKCLVEKSICFENCLNNDPEILKKIASIPNLFPTDLEIFQLFTNPSVDIQIINQYQLLYNLKNDILTNLE

Tests used:
Test in all cases: cross-linking
Snf5 = molecular target: B1
[1] = molecular target: Snf2 with two FLAG tags at the C-terminus (S. cerevisiae (endogenous in yeast), UniProt P22082 1-1703)
Swi1 = molecular target: B2

Sequence of Snf2 with two FLAG tags at the C-terminus (P22082 whole entry): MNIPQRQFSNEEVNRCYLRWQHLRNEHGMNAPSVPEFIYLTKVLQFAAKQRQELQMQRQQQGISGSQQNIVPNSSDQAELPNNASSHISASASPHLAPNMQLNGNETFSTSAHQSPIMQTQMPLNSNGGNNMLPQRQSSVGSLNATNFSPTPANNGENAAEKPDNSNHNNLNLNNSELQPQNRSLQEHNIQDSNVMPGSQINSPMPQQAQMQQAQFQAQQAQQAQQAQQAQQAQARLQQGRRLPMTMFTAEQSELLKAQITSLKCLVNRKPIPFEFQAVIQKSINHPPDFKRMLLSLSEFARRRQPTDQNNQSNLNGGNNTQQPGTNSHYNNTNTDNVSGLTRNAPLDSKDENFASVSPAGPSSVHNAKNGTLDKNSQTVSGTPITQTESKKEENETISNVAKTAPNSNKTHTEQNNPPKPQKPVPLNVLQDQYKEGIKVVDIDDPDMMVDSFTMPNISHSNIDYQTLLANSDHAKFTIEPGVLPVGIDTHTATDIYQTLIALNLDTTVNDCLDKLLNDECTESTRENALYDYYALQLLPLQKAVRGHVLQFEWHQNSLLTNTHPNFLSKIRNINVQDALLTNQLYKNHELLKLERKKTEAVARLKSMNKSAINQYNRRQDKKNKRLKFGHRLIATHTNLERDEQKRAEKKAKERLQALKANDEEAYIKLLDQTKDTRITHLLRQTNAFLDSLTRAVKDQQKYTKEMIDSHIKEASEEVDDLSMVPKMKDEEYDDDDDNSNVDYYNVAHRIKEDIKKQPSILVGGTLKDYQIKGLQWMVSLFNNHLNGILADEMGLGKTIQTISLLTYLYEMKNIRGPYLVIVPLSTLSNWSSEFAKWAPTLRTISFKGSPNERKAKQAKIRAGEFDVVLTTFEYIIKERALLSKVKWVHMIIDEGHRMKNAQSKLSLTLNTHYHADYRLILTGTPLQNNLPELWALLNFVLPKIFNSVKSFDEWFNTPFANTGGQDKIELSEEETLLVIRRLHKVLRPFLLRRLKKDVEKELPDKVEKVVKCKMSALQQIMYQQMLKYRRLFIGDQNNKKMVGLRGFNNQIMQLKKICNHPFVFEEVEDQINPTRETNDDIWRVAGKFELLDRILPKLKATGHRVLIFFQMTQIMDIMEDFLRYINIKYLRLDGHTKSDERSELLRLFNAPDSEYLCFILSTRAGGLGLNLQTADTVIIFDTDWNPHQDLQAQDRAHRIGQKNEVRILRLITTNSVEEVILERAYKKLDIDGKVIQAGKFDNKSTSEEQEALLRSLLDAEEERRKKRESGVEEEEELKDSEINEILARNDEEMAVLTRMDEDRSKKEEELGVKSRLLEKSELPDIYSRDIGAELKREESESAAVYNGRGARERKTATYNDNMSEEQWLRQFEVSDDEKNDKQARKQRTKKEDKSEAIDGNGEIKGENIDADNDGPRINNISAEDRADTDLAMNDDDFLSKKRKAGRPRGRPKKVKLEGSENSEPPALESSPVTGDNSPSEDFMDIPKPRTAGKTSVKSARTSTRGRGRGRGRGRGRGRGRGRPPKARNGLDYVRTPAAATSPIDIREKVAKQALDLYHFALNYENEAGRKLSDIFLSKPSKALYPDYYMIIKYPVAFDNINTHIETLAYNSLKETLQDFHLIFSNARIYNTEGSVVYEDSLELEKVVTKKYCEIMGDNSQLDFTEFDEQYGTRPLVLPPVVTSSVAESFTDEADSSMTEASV

binding result (Snf5)	binding result [1]	binding result (Swi1)	Binder
binds			Snf6 (natural protein, S. cerevisiae (endogenous in yeast), UniProt P18888 1-332, looked up) MGVIKKKRSHHGKASRQQYYSGVQVGGVGSMGAINNNIPSLTSFAEENNYQYGYSGSSAGMNGRSLTYAQQQLNKQRQDFERVRLRPEQLSNIIHDESDTISFRSNLLKNFISSNDAFNMLSLTTVPCDRIEKSRLFSEKTIRYLMQKQHEMKTQAAELQEKPLTPLKYTKLIAAAEDGSRSTKDMIDAVFEQDSHLRYQPDGVVVHRDDPALVGKLRGDLREAPADYWTHAYRDVLAQYHEAKERIRQKEVTAGEAQDEASLQQQQQQDLQQQQQVVTTVASQSPHATATEKEPVPAVVDDPLENMFGDYSNEPFNTNFDDEFGDLDAVFF
binds	binds		Taf14 (natural protein, S. cerevisiae (endogenous in yeast), UniProt P35189 1-244, looked up) MVATVKRTIRIKTQQHILPEVPPVENFPVRQWSIEIVLLDDEGKEIPATIFDKVIYHLHPTFANPNRTFTDPPFRIEEQGWGGFPLDISVFLLEKAGERKIPHDLNFLQESYEVEHVIQIPLNKPLLTEELAKSGSTEETTANTGTIGKRRTTTNTTAEPKAKRAKTGSASTVKGSVDLEKLAFGLTKLNEDDLVGVVQMVTDNKTPEMNVTNNVEEGEFIIDLYSLPEGLLKSLWDYVKKNTE
	binds	binds	B1
binds	binds		Swp82 (natural protein, S. cerevisiae (endogenous in yeast), UniProt P43554 1-623, looked up) MLGEDEGNTVLEKGNNPSVKQGEVGAVFIVPKILIREHERVILKQILQILDQDELVQPPLDKFPYKKLELPKYIDELKTRDATNTSYKMIQLDAYGEKKVGSNGELFGGRHYLFNTFTFTAHMGVLLVLLQDVIKVLYQSNATHDEDEFIVQHDQILVMETSEEQTKFLAKNGVIPEESKGSFKYITARSAFVEFGASVIAGGQRIVDDYWESLAKKQNLSSHQRVFKLSTNLISKISLLRPSFQNNRISNANEISANTNNTCTISTSKFESQYPIVTEQPSAEIREAYIENFAKGEHISAIVPGQSISGTLELSAQFRVPRYHSKNSFQQALQMKAMDIPIGRHEELLAQYESQAPDGSASISLPNHIPSVNPSNKPIKRMLSSILDINVSSSKNKKSEENEMIKPMNKGQHKNNTSLNINGWKFESLPLKSAENSGKQQYYRGLPLYEKNTLLERLKQLTPNEIKELEHLHDAVFVNTGLQNVRKVRTKKWKKYWQYKAGIPIGLKRSQLDEFKNKYLKDVLAQTSVTTNFNEITNTDETITTKRVPNPNFLGNCNIKDFKPPYIYSHVNKVPQNVAGDKTAVKLDTEVKNTNANPVVATDPVAAKPDNLANFSNEVAMNN
	binds		B2
binds	binds		Swi3 (natural protein, S. cerevisiae (endogenous in yeast), UniProt P32591 1-825, looked up) MENTLGEGSTVNASVDVDQHGNDNNSDSNANAAVAGVANTDTAGEESQQQDESLKDEATVPNTRDAESEAITVTAKQQPTMQANKLDSQETPSTEESRAQNVFGQDNEDSDNLFGETESSVSNNEANTPSIPTNPVDNENNKPAIKEDSTIQDSNGDVKNMEDVKIQKEEEPENNTVIEGVKEESQPDENTKEMDEVEEDDEDDDQPMISPDNSIFGDTKSESKQLGNTSSVANTPSEIPDAHKAEQEDIIEKTESVDKKVDSGEERNEQEREIMNDHSKSANPKKTTITRVEPETFEIPQAHEIVIPSYSKWFNLEKIHSIEVQSLPEFFTNRIPSKTPEVYMRYRNFMVNSYRLNPNEYFSVTTARRNVSGDAAALFRLHKFLTKWGLINYQVDSKLLPKNIEPPLTSQYSTRHDAPRGLFPFESYKPSVQLPDMAKLKKMMNTSDSESTLYKYLKESKRKYDEITHPPSTTDDENGDKNDNGGKMNNEVSTSTSMTGDANLLEEGETSRPLKKVKILEQIDENWSKEDLQKLLKGIQEFGADWYKVAKNVGNKSPEQCILRFLQLPIEDKFLYGDGNGKGDNDNGLGPLKYAPHLPFSKSENPVLSTIAFLVGLVNPKTVQSMTQRAIQSAESIKSQKEEISDQKPIEHIKEGSEIAISSLGYRSHIFATNEERQMNFLTNELIRLQMEKLDAKLNHLKKLEKFMELERKTLERQQENLLIQRLNFNQNSSKIVNVLSKCLNLISDSNINNSSVAEKEEIRSQIDHFKSMLSKPETLSIGKNPFNKPNIETGENHNGQSISNENDVKPISIEAPQFYRYWSA
